Data on two substances can be found in patent publication US12617818.

For the assay, the target named is Rabbit skeletal myosin (rabbit). Nature of the assay: cell-based or functional assay.

Sequence of Rabbit skeletal myosin (Q28641 whole entry): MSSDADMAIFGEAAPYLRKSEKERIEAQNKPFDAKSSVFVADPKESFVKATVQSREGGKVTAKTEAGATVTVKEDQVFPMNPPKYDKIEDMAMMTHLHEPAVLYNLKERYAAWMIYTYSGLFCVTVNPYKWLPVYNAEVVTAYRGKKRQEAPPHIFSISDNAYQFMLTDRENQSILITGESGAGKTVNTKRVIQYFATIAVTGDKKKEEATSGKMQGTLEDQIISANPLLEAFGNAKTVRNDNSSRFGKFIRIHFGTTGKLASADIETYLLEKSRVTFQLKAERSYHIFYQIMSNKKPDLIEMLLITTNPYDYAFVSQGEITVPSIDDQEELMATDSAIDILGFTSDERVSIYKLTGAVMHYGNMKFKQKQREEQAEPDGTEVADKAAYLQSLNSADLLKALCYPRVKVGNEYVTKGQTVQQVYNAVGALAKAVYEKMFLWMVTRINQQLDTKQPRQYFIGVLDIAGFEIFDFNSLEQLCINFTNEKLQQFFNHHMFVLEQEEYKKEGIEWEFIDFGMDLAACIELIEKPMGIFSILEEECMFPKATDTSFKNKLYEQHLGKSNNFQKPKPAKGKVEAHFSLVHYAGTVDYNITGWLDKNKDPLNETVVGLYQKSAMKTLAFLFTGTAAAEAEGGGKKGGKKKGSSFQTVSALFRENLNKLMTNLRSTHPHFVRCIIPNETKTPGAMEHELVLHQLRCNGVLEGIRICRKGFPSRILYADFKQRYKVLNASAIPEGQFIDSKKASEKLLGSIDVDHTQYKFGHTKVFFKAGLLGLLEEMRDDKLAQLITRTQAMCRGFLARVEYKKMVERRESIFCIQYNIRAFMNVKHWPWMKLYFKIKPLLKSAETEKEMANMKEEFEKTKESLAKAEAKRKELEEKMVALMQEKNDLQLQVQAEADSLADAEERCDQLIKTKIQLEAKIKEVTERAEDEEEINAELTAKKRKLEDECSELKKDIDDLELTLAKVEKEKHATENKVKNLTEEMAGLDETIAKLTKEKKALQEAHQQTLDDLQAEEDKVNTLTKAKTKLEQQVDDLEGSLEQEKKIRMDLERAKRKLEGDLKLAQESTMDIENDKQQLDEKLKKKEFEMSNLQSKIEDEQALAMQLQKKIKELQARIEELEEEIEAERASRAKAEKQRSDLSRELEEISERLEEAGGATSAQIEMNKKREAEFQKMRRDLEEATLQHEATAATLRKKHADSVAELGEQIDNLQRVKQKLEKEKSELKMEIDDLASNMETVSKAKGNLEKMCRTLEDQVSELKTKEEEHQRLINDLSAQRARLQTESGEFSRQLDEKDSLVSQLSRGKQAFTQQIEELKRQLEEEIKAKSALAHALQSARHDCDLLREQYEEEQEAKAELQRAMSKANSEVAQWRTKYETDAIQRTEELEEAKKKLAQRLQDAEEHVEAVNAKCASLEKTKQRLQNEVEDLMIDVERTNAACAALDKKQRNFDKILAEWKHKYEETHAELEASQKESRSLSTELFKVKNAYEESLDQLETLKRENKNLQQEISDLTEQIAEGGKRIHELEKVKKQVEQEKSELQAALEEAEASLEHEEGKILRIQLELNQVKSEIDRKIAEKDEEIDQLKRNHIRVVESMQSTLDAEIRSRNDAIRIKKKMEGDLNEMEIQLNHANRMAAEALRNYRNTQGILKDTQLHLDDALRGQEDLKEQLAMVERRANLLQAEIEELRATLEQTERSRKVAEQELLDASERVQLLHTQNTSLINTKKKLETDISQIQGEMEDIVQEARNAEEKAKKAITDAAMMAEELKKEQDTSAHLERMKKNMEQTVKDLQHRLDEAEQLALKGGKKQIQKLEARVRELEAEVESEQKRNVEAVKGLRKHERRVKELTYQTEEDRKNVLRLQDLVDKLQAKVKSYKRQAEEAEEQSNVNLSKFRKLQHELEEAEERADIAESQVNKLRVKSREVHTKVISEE
Sequence of Rabbit skeletal myosin (P02602 2-192, further chain): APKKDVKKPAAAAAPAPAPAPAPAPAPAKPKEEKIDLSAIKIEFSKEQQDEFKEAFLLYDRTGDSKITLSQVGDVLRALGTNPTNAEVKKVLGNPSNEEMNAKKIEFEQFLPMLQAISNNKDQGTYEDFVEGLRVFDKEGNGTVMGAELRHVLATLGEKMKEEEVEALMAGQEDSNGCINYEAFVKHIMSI
Sequence of Rabbit skeletal myosin (P02608 2-170, further chain): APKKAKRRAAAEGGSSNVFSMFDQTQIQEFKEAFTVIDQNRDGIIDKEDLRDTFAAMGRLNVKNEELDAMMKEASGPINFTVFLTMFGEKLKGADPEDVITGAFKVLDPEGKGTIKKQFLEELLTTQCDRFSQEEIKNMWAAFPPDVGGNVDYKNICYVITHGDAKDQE

For “Myosin binding protein C (MyBPC), whole length skeletal”, the in vitro motility: reduction of the motility of actin thin filaments over skeletal myosin thick filaments treated with MyBPC was found to be 22%.
In the case of Rabbit skeletal myosin, the GFS: force at an uncoiled length of 138 nm, control without antibody came out at 4.8 pN; the GFS: force to uncoil the myosin molecule for a length of 50 nm, no stabilizer (control) worked out at 3.62 pN; the GFS: force to uncoil the myosin molecule for a length of 60 nm, tethered by S1 heads to G-actin (control) came to 2.67 pN; the GFS: force to uncoil the myosin molecule to a length of 100 nm, no destabilizer (control) was 4.92 pN.
